# Results: patent US20240287177A1 (Merck KGaA, published 2024)
# T1: recombinant human NKp30 extracellular domain, his-tagged (human, UniProt O14931 19-135)
# T1 construct: BLI used human NKp30 bought from Abcam (his-tagged ECD); also called rh NKp30 ECD; human NKp30 (Abcam); not shown: his tag
# T1 sequence: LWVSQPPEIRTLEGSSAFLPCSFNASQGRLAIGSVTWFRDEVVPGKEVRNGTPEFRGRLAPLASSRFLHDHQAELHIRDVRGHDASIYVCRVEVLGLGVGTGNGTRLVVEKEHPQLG
# Tests used:
# [1] = target: T1, recombinant human NKp30 extracellular …; test: BLI as in Example 1
# [2] = target: T1, recombinant human NKp30 extracellular …; test: BLI as in Example 1, maximum binding capacity
# [3] = target: NKp30 on human NK cells (human) (UniProt O14931); test: cell-based or functional assay
# [4] = target: recombinant human NKp30 extracellular domain, his-tagged (human) (UniProt O14931); test: BLI, SEEDbody on anti-human Fc sensors, soluble NKp30, 1:1 fit
Kd [1],Emax (nm) [2],Kd [4],koff [4],kon [4],"Max. IFNγ release (pg/ml), NK cells with A431 cells [3]","Max. TNFα release (pg/ml), NK cells with A431 cells [3]",Binder,"EC50 (nM), MNC based killing of A431 cells, E:T 80:1 [3]","Max. Killing (% Lysis), MNC based killing of A431 cells, E:T 80:1 [3]"
9.97 nM,0.13 nm,–,–,–,–,–,"VHH2.3 (humanized) (VHH, expressed and measured by BLI 'as described in Experiment 1' (there: bispecific SEEDbody on anti-human Fc sensors)) VHH: EVQLVESGGGVVQPGGSLRLSCAVSGQTWTNYHIGWFRQAPGKARESVASIEWGGRGTYATDSVKGRFTISRDNAKNTLYLQMNSLRAEDTAVYYCAAQSSSRSPLESNYDYWGQGTLVTVSS",–,–
–,–,1.02 nM,0.000415 s⁻¹,405000 M⁻¹ s⁻¹,–,–,"VHH11 SEEDbody eff- (bispecific antibody, part only; not given: silenced SEED Fc and cetuximab Fab, V domains shown, not shown: another chain or arm of the molecule; a dimerising Fc or GST; small tags and cut ends) VHH: DVQLQESGGGLVQAGGSLRLSCAASGRTFSSDFMGWFRQAPGKEREFVAAIHWSGGSTSYADSVKGRFTISRDNAKDTVYLLMNSLKLEDTAVYYCAAEIRWLTTGWANLGSWGQGTQVTVSS",0.0111 nM,50 % Lysis
–,–,0.211 nM,0.000162 s⁻¹,766000 M⁻¹ s⁻¹,–,–,"VHH13 SEEDbody eff- (bispecific antibody, part only; not given: silenced SEED Fc and cetuximab Fab, V domains shown, not shown: another chain or arm of the molecule; a dimerising Fc or GST; small tags and cut ends) VHH: DVQLQESGGGLAQPGGPLRLSCAASGRTFTSDFMGWFRQAPGKEREFVAAIHWSGGSRSYADSVKGRFTISRDNAKDTVYLLMNSLKLEDTAVYYCAAEIRWQTAGWVNLGSWGQGTQVTVSS",0.00241 nM,51 % Lysis
–,–,0.253 nM,8.75e-05 s⁻¹,346000 M⁻¹ s⁻¹,–,–,"VHH10 SEEDbody eff- (bispecific antibody, part only; not given: silenced SEED Fc and cetuximab Fab, V domains shown, not shown: another chain or arm of the molecule; a dimerising Fc or GST; small tags and cut ends) VHH: DVQLQESGGGSVQAGGSLRLSCAASGRTFSSNFMGWFRQAPNKDREFVAAIHWSGGSRAYADSVKGRFTISRDNTKDTVYLLVNSLKLEDTAVYYCAAEISWQTTGWTNLGSWGQGTQVTVSS",0.0146 nM,51 % Lysis
–,–,0.982 nM,0.000898 s⁻¹,914000 M⁻¹ s⁻¹,–,–,"VHH12 SEEDbody eff- (bispecific antibody, part only; not given: silenced SEED Fc and cetuximab Fab, V domains shown, not shown: another chain or arm of the molecule; a dimerising Fc or GST; small tags and cut ends) VHH: DVQLQESGGGLVQAGGSLRLSCAASGRTFSSDFMGWFRQAPGKEREFVAAIHWSGGSRSYADSVKGRFTISRDNAKDTVYLLMNSLKLEDTAVYYCAAEIRWQTTGWANLGSWGQGTQVTVSS",0.00207 nM,49 % Lysis
–,–,4.99 nM,0.00187 s⁻¹,376000 M⁻¹ s⁻¹,–,–,"VHH9 SEEDbody eff- (bispecific antibody, part only; not given: silenced SEED Fc and cetuximab Fab, V domains shown, not shown: another chain or arm of the molecule; a dimerising Fc or GST) VHH: DVQLQESGGGLVQAGGSLRLSCAASGRGGASYAMGWFRQAPGKEREFVAAISWTGDTTYNVDSVKGRFTISSDNAKNPVYLDMSSLKPEDTAVYYCAAAHWTRVVAKGAMADEKKYEYWGQGTQVTVSS",0.0161 nM,53 % Lysis
–,–,52.4 nM,0.00352 s⁻¹,67200 M⁻¹ s⁻¹,–,–,"VHH7 SEEDbody eff- (bispecific antibody, part only; not given: silenced SEED Fc and cetuximab Fab, V domains shown, not shown: another chain or arm of the molecule; a dimerising Fc or GST; small tags and cut ends) VHH: DVQLQESGGGLAQPGGSLRLSCAASGFTFSSYDMGWYRQVPGKECELVAAIFSAGGSTIYADSVKGRFTISRDNAKNTVFLQMNSLKPEDTAVYYCNKAPPFTTIQPTCVMIDTQLGAWGQGTQVTVSS",0.0433 nM,49 % Lysis
–,–,0.322 nM,0.000134 s⁻¹,416000 M⁻¹ s⁻¹,595 pg/mL,109 pg/mL,"VHH8 SEEDbody eff- (bispecific antibody, part only; not given: silenced SEED Fc and cetuximab Fab, V domains shown, not shown: another chain or arm of the molecule; a dimerising Fc or GST; small tags and cut ends) VHH: DVQLQESGGGLAQPGGSLRLSCAASGFTFSSYDMGWYRQAPGKECELVAAIFSADGSTIYADSVKGRFTISSDNAKNTVFLQMNSLKPEDTAVYYCNKAPPFTTIQPMCVMIDTQLGAWGQGTQVTVSS",0.00899 nM,50 % Lysis
–,–,0.31 nM,0.000144 s⁻¹,464000 M⁻¹ s⁻¹,–,–,"VHH14 SEEDbody eff- (bispecific antibody, part only; not given: silenced SEED Fc and cetuximab Fab, V domains shown, not shown: another chain or arm of the molecule; a dimerising Fc or GST; small tags and cut ends) VHH: DVQLQESGGGLVQPGGSLRLSCEASGVTFNFYSMTWYRQAPGKERELVADITSEGRTEYAHSVKGRFIISRDDFGTMVYLQMNSLKPEDTAVYYCYTGGSWGQGTQVTVSS",0.00144 nM,51 % Lysis
–,–,0.289 nM,0.000186 s⁻¹,643000 M⁻¹ s⁻¹,635 pg/mL,119 pg/mL,"VHH5 SEEDbody eff- (bispecific antibody, part only; not given: silenced SEED Fc and cetuximab Fab, V domains shown, not shown: another chain or arm of the molecule; a dimerising Fc or GST; small tags and cut ends) VHH: DVQLQESGGGLVQPGESLRLSCLVSGVTYHFYDITWFRQAPGLEREGVSCISYASGSTKFADSVKGRFTISRDNAKNAVYLQMNSLKPEDTAVYFCATQGSGSCSDFMSADSVLSWGQGTQVTVSS",0.00286 nM,56 % Lysis
–,–,2.57 nM,0.000218 s⁻¹,84800 M⁻¹ s⁻¹,560 pg/mL,129 pg/mL,"VHH4 SEEDbody eff- (bispecific antibody, part only; not given: silenced SEED Fc and cetuximab Fab, V domains shown, not shown: another chain or arm of the molecule; a dimerising Fc or GST; small tags and cut ends) VHH: DVQLQESGGGLVQPGESLRLSCLVSGVTYHFYDITWFRQAPGLEREGVSCISYASGSTKFADSVKGRFTISRDNAKNAVYLQMNSLKPEDTAVYFCAMQGSGSCSDFMSADSVLSWGQGTQVTVSS",0.00592 nM,55 % Lysis
–,–,0.281 nM,0.00017 s⁻¹,604000 M⁻¹ s⁻¹,–,–,"VHH3 SEEDbody eff- (bispecific antibody, part only; not given: silenced SEED Fc and cetuximab Fab, V domains shown, not shown: another chain or arm of the molecule; a dimerising Fc or GST; small tags and cut ends) VHH: DVQLQESGGGLVQPGESLKLSCLVSGVTYHFYDITWFRQAPGLEREGVSCISYASGTTKFADSVKGRFTISRDNAKNAVYLEMNSLKPEDTAVYFCATQGSGSCSDFMSAGSVLSWGQGTQVTVSS",0.00284 nM,53 % Lysis
